Measurements as given in patent US7317096 (LEADD B V, dated 2008).

Biological target: the molecule itself
Experiment: size exclusion chromatography (Superose 6 HR 10/30)

B1: MBP-AAP-1 fusion protein (pMAL-AAP-1) (other, not shown: large carriers)
chain: MTMGDKKSPTRPKRQAKPAADEGFWDCSVCTFRNSAEAFKCSICDVRKGTSTRKPRINSQLVAQQVAQQYATPPPPKKEKKEKVEKQDKEKPEKDKEISPSVTKKNTNKKTKPKSDILKDPPSEANSIQSANATTKTSETNHTSRPRLKNVDRSTAQQLAVTVGNVTVIITDFKEKTRSSSTSSSTVTSSAGSEQQNQSSSGSESTDKGSSRSSTPKGDMSAVNDESF
notes: Produced in E. coli, 90 to 95% pure; Printed as 'a Homotrimer or Homo-tetramer'; also called MBP-AAPI
B1: binds.
